Measured values reported in patent publication US20250000946A1 (WUXI BIOLOGICS IRELAND, published 2025).
Where two headings read alike, the source gives them in different places.

Legend:
[1] = biological target: T1, Human IL-2Rβ/γ (intermediate affinity IL-2 receptor) (human, UniProt P14784 27-551; P31785 23-369); assay: FACS, HH cells; EC50 fold vs T2U0.E44-1
T1 construct: whole, on cells; also called IL-2Rβ/γc; IL-2Rβ (CD122) and γ (CD132)
T1 sequence (looked up) 1: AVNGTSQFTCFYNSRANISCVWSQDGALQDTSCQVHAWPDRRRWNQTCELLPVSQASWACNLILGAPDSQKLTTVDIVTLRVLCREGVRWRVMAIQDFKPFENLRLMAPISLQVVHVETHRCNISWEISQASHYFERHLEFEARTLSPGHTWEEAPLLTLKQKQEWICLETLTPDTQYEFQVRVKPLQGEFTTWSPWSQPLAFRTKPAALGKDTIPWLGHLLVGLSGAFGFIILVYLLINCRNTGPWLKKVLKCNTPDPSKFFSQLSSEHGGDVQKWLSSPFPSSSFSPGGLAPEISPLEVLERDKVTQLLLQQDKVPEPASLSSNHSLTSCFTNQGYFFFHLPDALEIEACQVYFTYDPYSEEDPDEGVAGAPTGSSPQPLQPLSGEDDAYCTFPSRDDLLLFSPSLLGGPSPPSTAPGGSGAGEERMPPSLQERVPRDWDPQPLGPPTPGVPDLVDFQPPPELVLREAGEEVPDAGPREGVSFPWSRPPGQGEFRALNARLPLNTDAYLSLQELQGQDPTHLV
T1 sequence (looked up) 2: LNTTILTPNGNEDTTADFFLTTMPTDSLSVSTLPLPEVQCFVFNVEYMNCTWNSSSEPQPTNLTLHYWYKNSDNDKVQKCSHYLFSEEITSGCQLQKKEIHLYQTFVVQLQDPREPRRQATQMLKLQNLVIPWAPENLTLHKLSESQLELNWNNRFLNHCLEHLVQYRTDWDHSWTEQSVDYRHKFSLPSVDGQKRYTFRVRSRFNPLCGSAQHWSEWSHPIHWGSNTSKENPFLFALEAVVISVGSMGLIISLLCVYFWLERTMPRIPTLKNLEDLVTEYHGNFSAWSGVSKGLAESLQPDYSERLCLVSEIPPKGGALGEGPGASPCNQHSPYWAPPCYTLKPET
Experimental: (§1) Human cutaneous T cell lymphoma HH cells, malignant non-Hodgkin's lymphoma NK92 cells and cutaneous T cell lymphoma MJ20 cells were used for binding assay. They both constitutively express IL-2Rβ (CD122) and […] (CD132), and NK92 and MJ20 also expresses IL-2Rα (CD25). HH, NK92 and MJ20 cells were cultured following ATCC guidance, then transferred to a 96-plate for binding analysis. Cells were incubated with IL-2/Fc fusion proteins at the indicated concentrations for 30 min at 4° C. to avoid internalization. Binding was detected by 2nd antibody of PE-anti-human Fc at 4° C. for another 30 min. The median fluorescence intensity (MFI) on HH and NK92 cells was measured using FACS.

[2] = biological target: T1, Human IL-2Rβ/γ (intermediate affinity …); assay: FACS, HH cells; EC50 fold vs T2U0.E44-1; remark: listed apart in the source
Experimental: as §1

[3] = biological target: T2, Human IL-2Rα/β/γ complex (high affinity IL-2 receptor) (human, UniProt P01589 22-272; P14784 27-551; P31785 23-369); assay: FACS, MJ20 cells; EC50 fold vs T2U0.E44-1
T2 construct: whole, on cells
T2 sequence (looked up) 1: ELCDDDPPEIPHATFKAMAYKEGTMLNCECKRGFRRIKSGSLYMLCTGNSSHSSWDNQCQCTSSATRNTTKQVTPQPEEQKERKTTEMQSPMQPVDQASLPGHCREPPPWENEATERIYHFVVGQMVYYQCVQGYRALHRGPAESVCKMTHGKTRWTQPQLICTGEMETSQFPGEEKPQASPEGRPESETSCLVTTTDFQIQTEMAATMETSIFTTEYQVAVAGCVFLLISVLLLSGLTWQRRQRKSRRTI
T2 sequence (looked up) 2: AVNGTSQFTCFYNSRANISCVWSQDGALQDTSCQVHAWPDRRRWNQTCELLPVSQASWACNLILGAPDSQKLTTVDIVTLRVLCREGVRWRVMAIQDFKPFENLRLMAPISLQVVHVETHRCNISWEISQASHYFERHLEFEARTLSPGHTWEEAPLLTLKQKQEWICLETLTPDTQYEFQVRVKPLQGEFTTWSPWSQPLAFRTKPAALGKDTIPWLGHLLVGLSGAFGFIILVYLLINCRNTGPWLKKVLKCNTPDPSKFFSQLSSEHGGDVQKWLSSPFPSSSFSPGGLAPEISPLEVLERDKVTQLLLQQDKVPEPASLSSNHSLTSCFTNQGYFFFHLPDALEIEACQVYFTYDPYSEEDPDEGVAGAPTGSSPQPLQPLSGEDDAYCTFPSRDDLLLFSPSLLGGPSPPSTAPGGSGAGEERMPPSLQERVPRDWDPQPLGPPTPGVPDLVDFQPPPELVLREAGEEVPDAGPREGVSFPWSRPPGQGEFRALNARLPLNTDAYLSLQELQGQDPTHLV
T2 sequence (looked up) 3: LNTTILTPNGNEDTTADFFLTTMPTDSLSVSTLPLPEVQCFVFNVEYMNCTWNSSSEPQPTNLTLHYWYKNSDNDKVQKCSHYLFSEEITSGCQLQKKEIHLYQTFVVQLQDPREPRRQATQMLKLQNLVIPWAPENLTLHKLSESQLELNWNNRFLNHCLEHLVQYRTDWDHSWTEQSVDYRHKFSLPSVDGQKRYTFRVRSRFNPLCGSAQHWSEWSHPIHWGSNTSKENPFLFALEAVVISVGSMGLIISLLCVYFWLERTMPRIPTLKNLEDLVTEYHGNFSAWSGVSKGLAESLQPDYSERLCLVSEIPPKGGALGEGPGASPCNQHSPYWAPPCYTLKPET
Outline: (§2)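 Cutaneous T cell lymphoma MJ20 cells, expressing IL-2Rα, β and γ, incubated with IL-2/Fc fusion proteins 30 min at 4 °C to prevent internalization. Binding detected with PE-anti-human Fc, 30 min at 4 °C, as median fluorescence intensity by flow cytometry; fold EC50 relative to T2U0.E44-1.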

[4] = biological target: T1, Human IL-2Rβ/γ (intermediate affinity …); assay: FACS, HH cells
Experimental: as §1

[5] = biological target: T2, Human IL-2Rα/β/γ complex (high affinity …); assay: cell-based or functional assay
[6] = biological target: T1, Human IL-2Rβ/γ (intermediate affinity …); assay: cell-based or functional assay
[7] = biological target: T2, Human IL-2Rα/β/γ complex (high affinity …); assay: FACS, NK92 cells
Experimental: as §1

[8] = biological target: T2, Human IL-2Rα/β/γ complex (high affinity …); assay: FACS, MJ20 cells
Outline: as §2

[9] = biological target: T2, Human IL-2Rα/β/γ complex (high affinity …); assay: cell-based or functional assay; remark: listed apart in the source
[10] = biological target: T1, Human IL-2Rβ/γ (intermediate affinity …); assay: cell-based or functional assay; remark: listed apart in the source
[11] = biological target: T2, Human IL-2Rα/β/γ complex (high affinity …); assay: FACS, NK92 cells; EC50 fold vs T2U0.E44-1
Experimental: as §1

[12] = biological target: T1, Human IL-2Rβ/γ (intermediate affinity …); assay: FACS, HH cells; remark: listed apart in the source
Experimental: as §1

[13] = biological target: T2, Human IL-2Rα/β/γ complex (high affinity …); assay: cell-based or functional assay; remark: listed apart in the source
[14] = biological target: T1, Human IL-2Rβ/γ (intermediate affinity …); assay: cell-based or functional assay; remark: listed apart in the source
[15] = biological target: T2, Human IL-2Rα/β/γ complex (high affinity …); assay: FACS, MJ20 cells; EC50 fold vs T2U0.E44-1; remark: listed apart in the source
Experimental: as §1

[16] = biological target: T2, Human IL-2Rα/β/γ complex (high affinity …); assay: FACS, MJ20 cells; remark: listed apart in the source
Experimental: as §1

B1: W3XX115-T2U0.E44-6.uIgG4V1 (Fc fusion)
chain: APTSSSTKKTQLQLEHLLLDLQMILNGINNYKNPKLTRMLTFKFYMPKKATELKHLQCLEEELKPLEEVLNLAQSKNFHLRPRDLISNINVIVLELKGSETTFMCEYADETATIVEFLNRWITFCQSIIESKYGPPCPPCPAPEFLGGPSVFLFPPKPKDTLMISRTPEVTCVVVDVSQEDPEVQFNWYVDGVEVHNAKTKPREEQFNSTYRVVSVLTVLHQDWLNGKEYKCKVSNKGLPSSIEKTISKAKGQPREPQVYTLPPCQEEMTKNQVSLWCLVKGFYPSDIAVEWESNGQPENNYKTTPPVLDSDGSFFLYSRLTVDKSRWQEGNVFSCSVMHEALHNHYTQKSLSLSLG
heavy: EIQLQQSGPELVKPGASVKVSCKASGYSFTDYNMYWVKQSHGESLEWIGYIDPYNGGTRYNQKFKGKATLTVDKSSSTAFMHLNSLTSEDSAVYYCARNGHWDGAWFAYWGQGTLVTVSAASTKGPSVFPLAPCSRSTSESTAALGCLVKDYFPEPVTVSWNSGALTSGVHTFPAVLQSSGLYSLSSVVTVPSSSLGTKTYTCNVDHKPSNTKVDKRVESKYGPPCPPCPAPEFLGGPSVFLFPPKPKDTLMISRTPEVTCVVVDVSQEDPEVQFNWYVDGVEVHNAKTKPREEQFNSTYRVVSVLTVLHQDWLNGKEYKCKVSNKGLPSSIEKTISKAKGQPREPQVCTLPPSQEEMTKNQVSLSCAVKGFYPSDIAVEWESNGQPENNYKTTPPVLDSDGSFFLVSRLTVDKSRWQEGNVFSCSVMHEALHNHYTQKSLSLSLG
light: DIQMNQSPSSLSASLGDTITITCHASQNINVWLSWYQQKPGNIPKLLIYKASNLHTGVPSRFSGSRSGTGFTLTISSLQPEDIATYYCHQGQSYPFTFGSGTKLEIKRTVAAPSVFIFPPSDEQLKSGTASVVCLLNNFYPREAKVQWKVDNALQSGNSQESVTEQDSKDSTYSLSSTLTLSKADYEKHKVYACEVTHQGLSSPVTKSFNRGEC
notes: IL-2 with C-terminal 4 aa (STLT) deleted; E44 format, IgG4
Affinity reduction [1]: 9.9 fold
Affinity reduction [2]: 14.1 fold
Affinity reduction [3]: 4 fold
EC50 [4]: 533 nM
Potency in human Treg EC50 [5]: 0.032 nM
Potency reduction (Treg) [5]: 12.6 fold
Potency in human CD8+ T EC50 [6]: 360 nM
Potency reduction (CD8+ T) [6]: 18 fold
EC50 [7]: 13.7 nM
EC50 [8]: 56.6 nM
Potency in human Treg EC50 [9]: 1.51 nM
Potency reduction (Treg) [9]: 58.4 fold
Potency in human CD8+ T EC50 [10]: 175 nM
Potency reduction (CD8+ T) [10]: 18.3 fold
Affinity reduction [11]: 2.48 fold
EC50 [12]: 437 nM

B2: W3XX115-T2U0.E44-37.uIgG4V322 (Fc fusion)
chain: APTSSSTKKTQLQLEHLLLDLQMILNGINNYKNPKLTRMLTFKFYMPKKATELKHLQCLEEELKPLEEVLNLAQSKNFHLRPRDLISNINVIVLELKGSETTFMCEYADETATIVEFLNRWITFCQNISESKYGPPCPPCPAPEAAGGPSVFLFPPKPKDTLMISRTPEVTCVVVDVSQEDPEVQFNWYVDGVEVHNAKTKPREEQFNSTYRVVSVLTVLHQDWLNGKEYKCKVSNKGLPSSIEKTISKAKGQPREPQVYTLPPCQEEMTKNQVSLWCLVKGFYPSDIAVEWESNGQPENNYKTTPPVLDSDGSFFLYSRLTVDKSRWQEGNVFSCSVMHEALHNHYTQKSLSLSLG
heavy: EIQLQQSGPELVKPGASVKVSCKASGYSFTDYNMYWVKQSHGESLEWIGYIDPYNGGTRYNQKFKGKATLTVDKSSSTAFMHLNSLTSEDSAVYYCARNGHWDGAWFAYWGQGTLVTVSAASTKGPSVFPLAPCSRSTSESTAALGCLVKDYFPEPVTVSWNSGALTSGVHTFPAVLQSSGLYSLSSVVTVPSSSLGTKTYTCNVDHKPSNTKVDKRVESKYGPPCPPCPAPEAAGGPSVFLFPPKPKDTLMISRTPEVTCVVVDVSQEDPEVQFNWYVDGVEVHNAKTKPREEQFNSTYRVVSVLTVLHQDWLNGKEYKCKVSNKGLPSSIEKTISKAKGQPREPQVCTLPPSQEEMTKNQVSLSCAVKGFYPSDIAVEWESNGQPENNYKTTPPVLDSDGSFFLVSRLTVDKSRWQEGNVFSCSVMHEALHNHYTQKSLSLSLG
light: DIQMNQSPSSLSASLGDTITITCHASQNINVWLSWYQQKPGNIPKLLIYKASNLHTGVPSRFSGSRSGTGFTLTISSLQPEDIATYYCHQGQSYPFTFGSGTKLEIKRTVAAPSVFIFPPSDEQLKSGTASVVCLLNNFYPREAKVQWKVDNALQSGNSQESVTEQDSKDSTYSLSSTLTLSKADYEKHKVYACEVTHQGLSSPVTKSFNRGEC
notes: IL-2 del STLT, S127N and I129S (glycosylation design); E44 format, IgG4 FALA
Affinity reduction [2]: 190000 fold
Potency in human Treg EC50 [13]: 8 nM
Potency reduction (Treg) [13]: 4060 fold
Potency in human CD8+ T EC50 [14]: ~17.6 nM
Affinity reduction [15]: 2.1 fold
EC50 [16]: 87.7 nM
